Numbering of substitutions follows the chain as printed.
What was measured:
[1] = target: T1, CD73-ND-K182A (human, UniProt P21589 27-317); assay: ELISA, biotinylated antigen on streptavidin plate
T1 construct: Alanine mutant of CD73-ND
T1 sequence: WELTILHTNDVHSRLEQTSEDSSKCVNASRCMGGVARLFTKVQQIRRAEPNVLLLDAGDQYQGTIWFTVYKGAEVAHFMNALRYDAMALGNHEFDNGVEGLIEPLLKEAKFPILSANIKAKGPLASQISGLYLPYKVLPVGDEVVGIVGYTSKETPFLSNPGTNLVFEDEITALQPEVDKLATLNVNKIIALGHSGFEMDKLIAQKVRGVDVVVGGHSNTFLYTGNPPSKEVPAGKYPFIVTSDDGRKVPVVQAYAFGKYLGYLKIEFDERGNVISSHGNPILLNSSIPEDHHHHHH
Protocol: (§1) The ELISA plates were coated with SA protein diluted to 1.5 μg/mL in coating buffer (50 mM carbonate coating buffer, pH 9.6) and incubated overnight at 4° C. The supernatant was discarded, and the plates were washed three times with PBST. Then, 5% skimmed milk powder prepared with PBS was added for blocking and the plates were incubated for 2 h at 37° C. After washing the plates once with PBST, CD73-biotin protein (prepared by biotinylating CD73-His protein according to the EZ-Link NHS-Biotin Reagent instructions) was diluted to 0.5 μg/mL and added at 100 μL/well for incubation at room temperature for 1 h. The plates were washed three times with PBST, and the prepared murine-derived monoclonal antibodies against human CD73 were serially diluted with 1% BSA buffer prepared with PBST and added to the ELISA plates at 100 μl/well. The plates were incubated at 37° C. for 1 h. After washing the plates three times with PBST, HRP-labeled goat anti-mouse IgG secondary antibody was added and the plates were incubated for 30 min at 37° C. After washing the plates three times with PBST, the residual droplets were patted dry on absorbent paper as much as possible. Then, 100 μl of TMB color developing solution was added to each well, and the plates were incubated in the dark at room temperature for 5 min for color development. Subsequently, 50 μl of 2M H₂SO₄ stop solution was added to each well to terminate the substrate reaction. The OD values were read at 450 nm using a multimode microplate reader to analyze the binding ability of the tested antibodies to the target antigen human CD73-His.
(§2) Referring to the experimental method in Example 3, the affinity of 48A11-HuV33 for various mutant proteins of CD73-ND was determined. The SA protein was diluted to 1 μg/mL for coating the ELISA plates, and the biotinylated CD73 protein (CD73-biotin) was used at a concentration of 0.1 μg/mL.

[2] = target: T2, CD73-ND-V144A (human, UniProt P21589 27-317); assay: ELISA, biotinylated antigen on streptavidin plate
T2 construct: Alanine mutant of CD73-ND
T2 sequence: T1 sequence with V144A, A182K
Protocol: as §1, §2

[3] = target: T3, CD73-ND-K180A (human, UniProt P21589 27-317); assay: ELISA, biotinylated antigen on streptavidin plate
T3 construct: Alanine mutant of CD73-ND
T3 sequence: T1 sequence with K180A, A182K
Protocol: as §1, §2

[4] = target: T4, CD73-ND-N185A (human, UniProt P21589 27-317); assay: ELISA, biotinylated antigen on streptavidin plate
T4 construct: Alanine mutant of CD73-ND
T4 sequence: T1 sequence with A182K, N185A
Protocol: as §1, §2

[5] = target: T5, CD73-ND-E143A (human, UniProt P21589 27-317); assay: ELISA, biotinylated antigen on streptavidin plate
T5 construct: Alanine mutant of CD73-ND
T5 sequence: T1 sequence with E143A, A182K
Protocol: as §1, §2

[6] = target: T6, CD73-ND-his (human, UniProt P21589 27-317); assay: ELISA; decline multiple of Top against CD73-ND
T6 construct: Biotinylated and captured on streptavidin in the ELISA
T6 sequence: T1 sequence with A182K
Protocol: as §1, §2

B1: 48A11-HuV33 (antibody, human IgG4, V domains shown)
VH: QVQLVQSGAEVKKPGASVKVSCKASGYTFTSYWMHWVRQAPGQGLEWIGEINPSIGRTNYNEKFKSRVTLTRDTSTSTAYMELSSLRSEDTAVYYCARRVYGTMDYWGQGTLVTVSS
VL: DIQMTQSPSSLSASVGDRVTITCKASQDINSYLSWFQQKPGKSPKLLIYRANIWVDGVPSRFSGSGSGQDYTFTISSLQPEDIATYYCLQYDELYTFGQGTKVEIK
notes: Humanized
EC50 [1]: 0.121 nM | EC50 [2]: 0.29 nM | EC50 [3]: 0.321 nM | EC50 [4]: 0.188 nM | EC50 [5]: 0.167 nM | Ratio(Top) [6]: 1 fold
